# Experimental data as given in patent US20150344570A1 (published 2015).
# T1: FcγRIIa H extracellular domain with C-terminal His tag (human, UniProt P12318 34-217)
# T1 construct: extracellular domain; Soluble receptor, H131 allotype; also called FcgRIIa H; FcgRIIaH; not shown: His tag at the C terminus
# T1 sequence (looked up): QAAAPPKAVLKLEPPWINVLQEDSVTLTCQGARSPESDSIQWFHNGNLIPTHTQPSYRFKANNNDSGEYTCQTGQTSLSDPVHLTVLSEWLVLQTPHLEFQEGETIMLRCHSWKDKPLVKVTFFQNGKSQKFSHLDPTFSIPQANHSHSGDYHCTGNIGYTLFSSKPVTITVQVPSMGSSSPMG
# T2: FcγRIIa R extracellular domain with C-terminal His tag (human, UniProt P12318 34-217)
# T2 construct: extracellular domain; Soluble receptor, R131 allotype; also called FcgRIIa R; FcgRIIaR; not shown: His tag at the C terminus
# T2 sequence (looked up): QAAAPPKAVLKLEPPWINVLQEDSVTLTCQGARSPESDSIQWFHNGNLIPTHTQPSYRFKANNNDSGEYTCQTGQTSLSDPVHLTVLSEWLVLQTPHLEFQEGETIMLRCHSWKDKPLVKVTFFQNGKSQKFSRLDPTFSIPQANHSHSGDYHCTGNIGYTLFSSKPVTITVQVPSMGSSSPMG
# T3: FcγRIIb extracellular domain with C-terminal His tag (human, UniProt P31994 43-217)
# T3 construct: extracellular domain; also called FcgRIIb; CD32B; not shown: His tag at the C terminus
# T3 sequence (looked up): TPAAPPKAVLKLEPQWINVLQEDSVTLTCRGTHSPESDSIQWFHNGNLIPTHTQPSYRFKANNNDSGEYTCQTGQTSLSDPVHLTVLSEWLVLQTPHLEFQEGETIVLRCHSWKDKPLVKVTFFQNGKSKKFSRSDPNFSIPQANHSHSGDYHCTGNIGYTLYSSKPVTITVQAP
# Tests used:
# Experiment in all cases: SPR (Biacore); KD of H240-Kn061/H240-Hl071/L73-k0 divided by KD of the variant
# [1] = biological target: T4, FcγRIIIa F extracellular domain with C-terminal His tag (human, UniProt P08637 17-208)
# T4 construct: extracellular domain; Soluble receptor, F158 allotype; also called FcgRIIIa F; FcgRIIIaF; not shown: His tag at the C terminus
# [2] = biological target: T1, FcγRIIa H extracellular domain with …
# [3] = biological target: T2, FcγRIIa R extracellular domain with …
# [4] = biological target: T5, FcγRIIIa V extracellular domain with C-terminal His tag (human, UniProt P08637 17-208)
# T5 construct: extracellular domain; Soluble receptor, V158 allotype; also called FcgRIIIa V; FcgRIIIaV; not shown: His tag at the C terminus
# [5] = biological target: T3, FcγRIIb extracellular domain with …
# T5 sequence (P08637 17-208 F176V): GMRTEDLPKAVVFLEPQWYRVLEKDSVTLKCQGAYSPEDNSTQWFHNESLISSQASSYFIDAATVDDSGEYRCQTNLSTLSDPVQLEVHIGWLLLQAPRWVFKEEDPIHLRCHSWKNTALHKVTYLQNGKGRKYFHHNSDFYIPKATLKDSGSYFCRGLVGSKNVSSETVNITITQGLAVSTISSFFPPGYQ
# T4 sequence (P08637 17-208): as the sequence (P08637 17-208 F176V) above, with V160F counted along it
Binder,relative KD [1],relative KD [2],relative KD [3],relative KD [4],relative KD [5]
"H240-Kn061/H240-Hl071/L73-k0 variant with F241L introduced into H chain H240-Hl071 (antibody, human IgG1, kappa, Point variant of the heterodimerized anti-epiregulin IgG1 template; also called H240-Hl071 F241L) heavy 1: QDQLVQSGAEVKKPGASVKVSCKASGFNIKDTYIQWVRQAPGQGLEWMGRIDPLRKQTKYREKFEGRVTITADTSTNTAYMELSSLRSEDTAVYYCVRSGREFDYWGQGTLVTVSSASTKGPSVFPLAPSSKSTSGGTAALGCLVKDYFPEPVTVSWNSGALTSGVHTFPAVLQSSGLYSLSSVVTVPSSSLGTQTYICNVNHKPSNTKVDKKVEPKSCDKTHTCPPCPAPEYYWGPSVFLFPPKPKDTLMISRTPEVTCVVVDVSDEDPEVKFNWYVDGVEVHNAKTKPREEQYNATYRVVSVLTVLHQDWLNGKEYKCKVSNKALPAPIEKTISKAKGQPREPQVCTLPPSRDELTKNQVSLWCLVKGFYPSDIAVEWESNGQPENNYKTTPPVLDSDGSFFLYSKLTVDKSRWQQGNVFSCSVMHEALHNHYTQKSLSLSP heavy 2: QDQLVQSGAEVKKPGASVKVSCKASGFNIKDTYIQWVRQAPGQGLEWMGRIDPLRKQTKYREKFEGRVTITADTSTNTAYMELSSLRSEDTAVYYCVRSGREFDYWGQGTLVTVSSASTKGPSVFPLAPSSKSTSGGTAALGCLVKDYFPEPVTVSWNSGALTSGVHTFPAVLQSSGLYSLSSVVTVPSSSLGTQTYICNVNHKPSNTKVDKKVEPKSCDKTHTCPPCPAPELLGGPSVLLFPPKPKDTLMISRTPEVTCVVVDVSHEDPEVKFNWYVDGVEVHNAKTKPREEQYNSTYRVVSVLTVLHQDWLNGKEYKCKVSNDALPMPIEETISKAKGQPREPQVYTLPPSRCELTKNQVSLSCAVKGFYPSDIAVEWESNGQPENNYKTTPPVLDSDGSFFLVSKLTVDKSRWQQGNVFSCSVMHEALHNHYTQKSLSLSP light: DIQMTQSPSSLSASVGDRVTITCRASQDIHKYIAWYQQKPGQAPRLLIQYTSTLQPGVPSRFSGSGSGTDYTFTISSLQPEDIATYYCLQYEQLRTFGGGTKVEIKRTVAAPSVFIFPPSDEQLKSGTASVVCLLNNFYPREAKVQWKVDNALQSGNSQESVTEQDSKDSTYSLSSTLTLSKADYEKHKVYACEVTHQGLSSPVTKSFNRGEC",1.3,1.2,1.2,1.3,0.8
"H240-Kn061/H240-Hl071/L73-k0 variant with F241M introduced into H chain H240-Hl071 (antibody, human IgG1, kappa, Point variant of the heterodimerized anti-epiregulin IgG1 template; also called H240-Hl071 F241M) heavy 1: QDQLVQSGAEVKKPGASVKVSCKASGFNIKDTYIQWVRQAPGQGLEWMGRIDPLRKQTKYREKFEGRVTITADTSTNTAYMELSSLRSEDTAVYYCVRSGREFDYWGQGTLVTVSSASTKGPSVFPLAPSSKSTSGGTAALGCLVKDYFPEPVTVSWNSGALTSGVHTFPAVLQSSGLYSLSSVVTVPSSSLGTQTYICNVNHKPSNTKVDKKVEPKSCDKTHTCPPCPAPEYYWGPSVFLFPPKPKDTLMISRTPEVTCVVVDVSDEDPEVKFNWYVDGVEVHNAKTKPREEQYNATYRVVSVLTVLHQDWLNGKEYKCKVSNKALPAPIEKTISKAKGQPREPQVCTLPPSRDELTKNQVSLWCLVKGFYPSDIAVEWESNGQPENNYKTTPPVLDSDGSFFLYSKLTVDKSRWQQGNVFSCSVMHEALHNHYTQKSLSLSP heavy 2: QDQLVQSGAEVKKPGASVKVSCKASGFNIKDTYIQWVRQAPGQGLEWMGRIDPLRKQTKYREKFEGRVTITADTSTNTAYMELSSLRSEDTAVYYCVRSGREFDYWGQGTLVTVSSASTKGPSVFPLAPSSKSTSGGTAALGCLVKDYFPEPVTVSWNSGALTSGVHTFPAVLQSSGLYSLSSVVTVPSSSLGTQTYICNVNHKPSNTKVDKKVEPKSCDKTHTCPPCPAPELLGGPSVMLFPPKPKDTLMISRTPEVTCVVVDVSHEDPEVKFNWYVDGVEVHNAKTKPREEQYNSTYRVVSVLTVLHQDWLNGKEYKCKVSNDALPMPIEETISKAKGQPREPQVYTLPPSRCELTKNQVSLSCAVKGFYPSDIAVEWESNGQPENNYKTTPPVLDSDGSFFLVSKLTVDKSRWQQGNVFSCSVMHEALHNHYTQKSLSLSP light: DIQMTQSPSSLSASVGDRVTITCRASQDIHKYIAWYQQKPGQAPRLLIQYTSTLQPGVPSRFSGSGSGTDYTFTISSLQPEDIATYYCLQYEQLRTFGGGTKVEIKRTVAAPSVFIFPPSDEQLKSGTASVVCLLNNFYPREAKVQWKVDNALQSGNSQESVTEQDSKDSTYSLSSTLTLSKADYEKHKVYACEVTHQGLSSPVTKSFNRGEC",1.3,1.1,1.3,1.3,0.9

# Other lines, results leading:
relative KD [1],relative KD [2],relative KD [3],relative KD [4],relative KD [5],Binder
1.3,1.2,1,1.7,1,"H240-Kn061/H240-Hl071/L73-k0 variant with V240A introduced into H chain H240-Hl071 (antibody, human IgG1, kappa, Point variant of the heterodimerized anti-epiregulin IgG1 template; also called H240-Hl071 V240A) heavy 1: QDQLVQSGAEVKKPGASVKVSCKASGFNIKDTYIQWVRQAPGQGLEWMGRIDPLRKQTKYREKFEGRVTITADTSTNTAYMELSSLRSEDTAVYYCVRSGREFDYWGQGTLVTVSSASTKGPSVFPLAPSSKSTSGGTAALGCLVKDYFPEPVTVSWNSGALTSGVHTFPAVLQSSGLYSLSSVVTVPSSSLGTQTYICNVNHKPSNTKVDKKVEPKSCDKTHTCPPCPAPEYYWGPSVFLFPPKPKDTLMISRTPEVTCVVVDVSDEDPEVKFNWYVDGVEVHNAKTKPREEQYNATYRVVSVLTVLHQDWLNGKEYKCKVSNKALPAPIEKTISKAKGQPREPQVCTLPPSRDELTKNQVSLWCLVKGFYPSDIAVEWESNGQPENNYKTTPPVLDSDGSFFLYSKLTVDKSRWQQGNVFSCSVMHEALHNHYTQKSLSLSP heavy 2: QDQLVQSGAEVKKPGASVKVSCKASGFNIKDTYIQWVRQAPGQGLEWMGRIDPLRKQTKYREKFEGRVTITADTSTNTAYMELSSLRSEDTAVYYCVRSGREFDYWGQGTLVTVSSASTKGPSVFPLAPSSKSTSGGTAALGCLVKDYFPEPVTVSWNSGALTSGVHTFPAVLQSSGLYSLSSVVTVPSSSLGTQTYICNVNHKPSNTKVDKKVEPKSCDKTHTCPPCPAPELLGGPSAFLFPPKPKDTLMISRTPEVTCVVVDVSHEDPEVKFNWYVDGVEVHNAKTKPREEQYNSTYRVVSVLTVLHQDWLNGKEYKCKVSNDALPMPIEETISKAKGQPREPQVYTLPPSRCELTKNQVSLSCAVKGFYPSDIAVEWESNGQPENNYKTTPPVLDSDGSFFLVSKLTVDKSRWQQGNVFSCSVMHEALHNHYTQKSLSLSP light: DIQMTQSPSSLSASVGDRVTITCRASQDIHKYIAWYQQKPGQAPRLLIQYTSTLQPGVPSRFSGSGSGTDYTFTISSLQPEDIATYYCLQYEQLRTFGGGTKVEIKRTVAAPSVFIFPPSDEQLKSGTASVVCLLNNFYPREAKVQWKVDNALQSGNSQESVTEQDSKDSTYSLSSTLTLSKADYEKHKVYACEVTHQGLSSPVTKSFNRGEC"
1.9,1.1,1.2,1.6,1,"H240-Kn061/H240-Hl071/L73-k0 variant with L235F introduced into H chain H240-Hl071 (antibody, human IgG1, kappa, Point variant of the heterodimerized anti-epiregulin IgG1 template; also called H240-Hl071 L235F) heavy 1: QDQLVQSGAEVKKPGASVKVSCKASGFNIKDTYIQWVRQAPGQGLEWMGRIDPLRKQTKYREKFEGRVTITADTSTNTAYMELSSLRSEDTAVYYCVRSGREFDYWGQGTLVTVSSASTKGPSVFPLAPSSKSTSGGTAALGCLVKDYFPEPVTVSWNSGALTSGVHTFPAVLQSSGLYSLSSVVTVPSSSLGTQTYICNVNHKPSNTKVDKKVEPKSCDKTHTCPPCPAPEYYWGPSVFLFPPKPKDTLMISRTPEVTCVVVDVSDEDPEVKFNWYVDGVEVHNAKTKPREEQYNATYRVVSVLTVLHQDWLNGKEYKCKVSNKALPAPIEKTISKAKGQPREPQVCTLPPSRDELTKNQVSLWCLVKGFYPSDIAVEWESNGQPENNYKTTPPVLDSDGSFFLYSKLTVDKSRWQQGNVFSCSVMHEALHNHYTQKSLSLSP heavy 2: QDQLVQSGAEVKKPGASVKVSCKASGFNIKDTYIQWVRQAPGQGLEWMGRIDPLRKQTKYREKFEGRVTITADTSTNTAYMELSSLRSEDTAVYYCVRSGREFDYWGQGTLVTVSSASTKGPSVFPLAPSSKSTSGGTAALGCLVKDYFPEPVTVSWNSGALTSGVHTFPAVLQSSGLYSLSSVVTVPSSSLGTQTYICNVNHKPSNTKVDKKVEPKSCDKTHTCPPCPAPELFGGPSVFLFPPKPKDTLMISRTPEVTCVVVDVSHEDPEVKFNWYVDGVEVHNAKTKPREEQYNSTYRVVSVLTVLHQDWLNGKEYKCKVSNDALPMPIEETISKAKGQPREPQVYTLPPSRCELTKNQVSLSCAVKGFYPSDIAVEWESNGQPENNYKTTPPVLDSDGSFFLVSKLTVDKSRWQQGNVFSCSVMHEALHNHYTQKSLSLSP light: DIQMTQSPSSLSASVGDRVTITCRASQDIHKYIAWYQQKPGQAPRLLIQYTSTLQPGVPSRFSGSGSGTDYTFTISSLQPEDIATYYCLQYEQLRTFGGGTKVEIKRTVAAPSVFIFPPSDEQLKSGTASVVCLLNNFYPREAKVQWKVDNALQSGNSQESVTEQDSKDSTYSLSSTLTLSKADYEKHKVYACEVTHQGLSSPVTKSFNRGEC"
